This assay has as its target T1, KRAS G12V (same sequence in NRAS and HRAS G12V) peptide on HLA-A*11:01 (human).
T1 peptide: VVGAVGVGK
Put plainly: stated without data.

B1: TCR 11N6 (TCR, V domains shown)
Valpha: QQGEEDPQALSIQEGENATMNCSYKTSINNLQWYRQNSGRGLVHLILIRSNEREKHSGRLRVTLDTSKKSSSLLITASRAADTASYFCATDPMNTNAGKSTFGDGTTLTVKP
Vbeta: GVAQSPRYKIIEKRQSVAFWCNPISGHATLYWYQQILGQGPKLLIQFQNNGVVDDSQLPKDRFSAERLKGVDSTLKIQPAKLEDSAVYLCASSPYGGSVSYEQYFGPGTRLTVT
Consider B1, for which the binding result was “recognises”.

(Values after US20250152717A1 (published 2025).)
